Article PMC5041073

Biological target: Dbf4(5)Rad53 chimera (Dbf4-SGASG-Rad53) (S. cerevisiae) (UniProt P32325)
Test: AUC; sedimentation velocity, 50,000 rpm, 20 °C, 2 to 310 μM, 0.2 M NaCl, 0.02 M TRIS-HCl pH 8.0, 1.4 mM 2-mercaptoethanol, 5% v/v glycerol; weighted-average s isotherm fitted to a reversible monomer-dimer equilibrium; dimer to monomers

Kd: 130 µM
stoichiometry N: 2
Substance: Dbf4(5)Rad53 chimera (Dbf4-SGASG-Rad53) (from UniProt P32325 105-220; P22216 22-162)
